Data set [1] concerns HeLa Kyoto. Put plainly: solubility in G1/S (NP-40 vs SDS abundance) (log2 ratio); higher = more soluble. The following applies: cell cycle stage: G1/S.
Data set [2] has as its system HeLa Kyoto. Put plainly: melting temperature (median over replicates), in situ; higher = more thermally stable.
For data set [3], the system named is HeLa Kyoto. Put plainly: solubility change mitosis vs G1/S (difference of NP-40 vs SDS log2 ratios) (log2 ratio difference); higher = more soluble in mitosis.
The test system of data set [4] is HeLa Kyoto. Put plainly: thermal stability score vs G1/S (z-score of summed log2 fold changes over temperatures); higher = more thermally stable than in G1/S.
[5] abbreviates: cell cycle stage: early G1 (4.5 h after nocodazole release).
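Throughout, for melting temperature (median over replicates), in situ: HeLa Kyoto cells synchronized by double thymidine or nocodazole block, proteins quantified by TMT10plex mass spectrometry, three independent biological replicates.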
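Throughout, for solubility change mitosis vs G1/S (difference of NP-40 vs SDS log2 ratios): synchronized HeLa Kyoto cells (double thymidine block for G1/S, nocodazole release for mitosis), protein amounts in NP-40 versus SDS lysates quantified by mass spectrometry, three biological replicates.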
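Throughout, for solubility in G1/S (NP-40 vs SDS abundance): HeLa Kyoto cells arrested at G1/S by double thymidine block, proteins quantified by TMT10plex mass spectrometry in mild NP-40 versus SDS extracts, three biological replicates.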
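Throughout, for thermal stability score vs G1/S (z-score of summed log2 fold changes over temperatures): synchronized HeLa Kyoto cells, proteins quantified by TMT10plex mass spectrometry, three biological replicates, mitosis taken 0.5 h after nocodazole release, G1/S directly after double thymidine block.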

Turning to “MSRPSSVSPRQPAPGGGGGGGPSPCGPGGGGRAKGLKDIRIDEEVKIAVNIALERFRYGDQREMEFPSSLTSTERAFIHRLSQSLGLVSKSKGKGANRYLTVKKKDGSETAHAMMTCNLTHNTKHAVRSLIQRFPVTNKERTELLPKTERGNVFAVEAENREMSKTSGRLNNGIPQIPVKRGESEFDSFRQSLPVFEKQEEIVKIIKENKVVLIVGETGSGKTTQIPQFLLDDCFKNGIPCRIFCTQPRRLAAIAVAERVAAERRERIGQTIGYQIRLESRVSPKTLLTFCTNGVLLRTLMAGDSTLSTVTHVIVDEVHERDRFSDFLLTKLRDLLQKHPTLKLILSSAALDVNLFIRYFGSCPVIYIQGRPFEVKEMFLEDILRTTGYTNKEMLKYKKEKQQEEKQQTTLTEWYSAQENSFKPESQRQRTVLNVTDEYDLLDDGGDAVFSQLTEKDVNCLEPWLIKEMDACLSDIWLHKDIDAFAQVFHLILTENVSVDYRHSETSATALMVAAGRGFASQVEQLISMGANVHSKASNGWMALDWAKHFGQTEIVDLLESYSATLEFGNLDESSLVQTNGSDLSAEDRELLKAYHHSFDDEKVDLDLIMHLLYNICHSCDAGAVLIFLPGYDEIVGLRDRILFDDKRFADSTHRYQVFMLHSNMQTSDQKKVLKNPPAGVRKIILSTNIAETSITVNDVVFVIDSGKVKEKSFDALNFVTMLKMVWISKASAIQRKGRAGRCRPGICFRLFSRLRFQNMLEFQTPELLRMPLQELCLHTKLLAPVNCPIADFLMKAPEPPPALIVRNAVQMLKTIDAMDTWEDLTELGYHLADLPVEPHLGKMVLCAVVLKCLDPILTIACTLAYRDPFVLPTQASQKRAAMLCRKRFTAGAFSDHMALLRAFQAWQKARSDGWERAFCEKNFLSQATMEIIIGMRTQLLGQLRASGFVRARGGGDIRDVNTNSENWAVVKAALVAGMYPNLVHVDRENLVLTGPKEKKVRFHPASVLSQPQYKKIPPANGQAAAIKALPTDWLIYDEMTRAHRIANIRCCSAVTPVTILVFCGPARLASNALQEPSSFRVDGIPNDSSDSEMEDKTTANLAALKLDEWLHFTLEPEAASLLLQLRQKWHSLFLRRMRAPSKPWSQVDEATIRAIIAVLSTEEQSAGLQQPSGIGQRPRPMSSEELPLASSWRSNNSRKSSADTEFSDECTTAERVLMKSPSPALHPPQKYKDRGILHPKRGTEDRSDQSSLKSTDSSSYPSPCASPSPPSSGKGSKSPSPRPNMPVRYFIMKSSNLRNLEISQQKGIWSTTPSNERKLNRAFWESSIVYLVFSVQGSGHFQGFSRMSSEIGREKSQDWGSAGLGGVFKVEWIRKESLPFQFAHHLLNPWNDNKKVQISRDGQELEPLVGEQLLQLWERLPLGEKNTTD [YTHDC2]”, in data set [1], the “solubility in G1/S (log2)” value is -0.57. For the same sequence, the values for the melting temperature in data set [2] (cell cycle stage: G1/S) and in data set [2] (cell cycle stage: mitosis) were 50.2 °C and 50 °C, respectively. For the same sequence, in data set [3], the “solubility change mitosis (log2)” value worked out at 0.163. For the same sequence, the thermal stability score was -0.356 in data set [4] (setting [5]) and 0.243 in data set [4] (cell cycle stage: mitosis).

With “MSLRQRLAQLVGRLQDPQKVARFQRLCGVEAPPRRSADRREDEKAEAPLAGDPRLRGRQPGAPGGPQPPGSDRNQCPAKPDGGGAPNGVRNGLAAELGPASPRRAGALRRNSLTGEEGQLARVSNWPLYCLFCFGTELGNELFYILFFPFWIWNLDPLVGRRLVVIWVLVMYLGQCTKDIIRWPRPASPPVVKLEVFYNSEYSMPSTHAMSGTAIPISMVLLTYGRWQYPLIYGLILIPCWCSLVCLSRIYMGMHSILDIIAGFLYTILILAVFYPFVDLIDNFNQTHKYAPFIIIGLHLALGIFSFTLDTWSTSRGDTAEILGSGAGIACGSHVTYNMGLVLDPSLDTLPLAGPPITVTLFGKAILRILIGMVFVLIIRDVMKKITIPLACKIFNIPCDDIRKARQHMEVELPYRYITYGMVGFSITFFVPYIFFFIGIS [SGPP1]”, in data set [1], the “solubility in G1/S (log2)” value is -0.0125. Further, the results for the melting temperature in data set [2] (cell cycle stage: G1/S) and in data set [2] (cell cycle stage: mitosis) were 53.9 °C and 53.4 °C, respectively. In data set [3], the “solubility change mitosis (log2)” value was -0.122. Further, the thermal stability score in data set [4] (setting [5]) worked out at 1.45; in data set [4] (cell cycle stage: mitosis), 1.19.

With “MFRGLSSWLGLQQPVAGGGQPNGDAPPEQPSETVAESAEEELQQAGDQELLHQAKDFGNYLFNFASAATKKITESVAETAQTIKKSVEEGKIDGIIDKTIIGDFQKEQKKFVEEQHTKKSEAAVPPWVDTNDEETIQQQILALSADKRNFLRDPPAGVQFNFDFDQMYPVALVMLQEDELLSKMRFALVPKLVKEEVFWRNYFYRVSLIKQSAQLTALAAQQQAAGKEEKSNGREQDLPLAEAVRPKTPPVVIKSQLKTQEDEEEISTSPGVSEFVSDAFDACNLNQEDLRKEMEQLVLDKKQEETAVLEEDSADWEKELQQELQEYEVVTESEKRDENWDKEIEKMLQEEN [SYAP1]”, the “solubility in G1/S (log2)” value in data set [1] was found to be 0.391. Further, the melting temperature in data set [2] (cell cycle stage: G1/S) is 53.2 °C; in data set [2] (cell cycle stage: mitosis), 53.5 °C. Besides, the “solubility change mitosis (log2)” value in data set [3] is 0.264. The values for the thermal stability score in data set [4] (setting [5]) and in data set [4] (cell cycle stage: mitosis) were -0.579 and -1.49, respectively.

Regarding “MEMPLPPDDQELRNVIDKLAQFVARNGPEFEKMTMEKQKDNPKFSFLFGGEFYSYYKCKLALEQQQLICKQQTPELEPAATMPPLPQPPLAPAAPIPPAQGAPSMDELIQQSQWNLQQQEQHLLALRQEQVTAAVAHAVEQQMQKLLEETQLDMNEFDNLLQPIIDTCTKDAISAGKNWMFSNAKSPPHCELMAGHLRNRITADGAHFELRLHLIYLINDVLHHCQRKQARELLAALQKVVVPIYCTSFLAVEEDKQQKIARLLQLWEKNGYFDDSIIQQLQSPALGLGQYQATLINEYSSVVQPVQLAFQQQIQTLKTQHEEFVTSLAQQQQQQQQQQQQLQMPQMEAEVKATPPPPAPPPAPAPAPAIPPTTQPDDSKPPIQMPGSSEYEAPGGVQDPAAAGPRGPGPHDQIPPNKPPWFDQPHPVAPWGQQQPPEQPPYPHHQGGPPHCPPWNNSHEGMWGEQRGDPGWNGQRDAPWNNQPDAAWNSQFEGPWNSQHEQPPWGGGQREPPFRMQRPPHFRGPFPPHQQHPQFNQPPHPHNFNRFPPRFMQDDFPPRHPFERPPYPHRFDYPQGDFPAEMGPPHHHPGHRMPHPGINEHPPWAGPQHPDFGPPPHGFNGQPPHMRRQGPPHINHDDPSLVPNVPYFDLPAGLMAPLVKLEDHEYKPLDPKDIRLPPPMPPSERLLAAVEAFYSPPSHDRPRNSEGWEQNGLYEFFRAKMRARRRKGQEKRNSGPSRSRSRSKSRGRSSSRSNSRSSKSSGSYSRSRSRSCSRSYSRSRSRSRSRSRSSRSRSRSQSRSRSKSYSPGRRRRSRSRSPTPPSSAGLGSNSAPPIPDSRLGEENKGHQMLVKMGWSGSGGLGAKEQGIQDPIKGGDVRDKWDQYKGVGVALDDPYENYRRNKSYSFIARMKARDECK [CHERP]”, the “solubility in G1/S (log2)” value in data set [1] was -0.174. For the same sequence, the melting temperature in data set [2] (cell cycle stage: G1/S) amounted to 47.6 °C; in data set [2] (cell cycle stage: mitosis), 49.2 °C. Further, the “solubility change mitosis (log2)” value in data set [3] worked out at 0.513. For the same sequence, the figures for the thermal stability score in data set [4] (setting [5]) and in data set [4] (cell cycle stage: mitosis) were 1.81 and 4.57, respectively.

Regarding “MEVPAAGRVPAEGAPTAAVAEVRCPGPAPLRLLEWRVAAGAAVRIGSVLAVFEAAASAQSSGASQSRVASGGCVRPARPERRLRSERAGVVRELCAQPGQVVAPGAVLVRLEGCSHPVVMKGLCAECGQDLTQLQSKNGKQQVPLSTATVSMVHSVPELMVSSEQAEQLGREDQQRLHRNRKLVLMVDLDQTLIHTTEQHCQQMSNKGIFHFQLGRGEPMLHTRLRPHCKDFLEKIAKLYELHVFTFGSRLYAHTIAGFLDPEKKLFSHRILSRDECIDPFSKTGNLRNLFPCGDSMVCIIDDREDVWKFAPNLITVKKYVYFQGTGDMNAPPGSRESQTRKKVNHSRGTEVSEPSPPVRDPEGVTQAPGVEPSNGLEKPARELNGSEAATPRDSPRPGKPDERDIWPPAQAPTSSQELAGAPEPQGSCAQGGRVAPGQRPAQGATGTDLDFDLSSDSESSSESEGTKSSSSASDGESEGKRGRQKPKAAPEGAGALAQGSSLEPGRPAAPSLPGEAEPGAHAPDKEPELGGQEEGERDGLCGLGNGCADRKEAETESQNSELSGVTAGESLDQSMEEEEEEDTDEDDHLIYLEEILVRVHTDYYAKYDRYLNKEIEEAPDIRKIVPELKSKVLADVAIIFSGLHPTNFPIEKTREHYHATALGAKILTRLVLSPDAPDRATHLIAARAGTEKVLQAQECGHLHVVNPDWLWSCLERWDKVEEQLFPLRDDHTKAQRENSPAAFPDREGVPPTALFHPMPVLPKAQPGPEVRIYDSNTGKLIRTGARGPPAPSSSLPIRQEPSSFRAVPPPQPQMFGEELPDAQDGEQPGPSRRKRQPSMSETMPLYTLCKEDLESMDKEVDDILGEGSDDSDSEKRRPEEQEEEPQPRKPGTRRERTLGAPASSERSAAGGRGPRGHKRKLNEEDAASESSRESSNEDEGSSSEADEMAKALEAELNDLM [CTDP1]”, in data set [1], the “solubility in G1/S (log2)” value was determined as 0.0911. Further, the values for the melting temperature in data set [2] (cell cycle stage: G1/S) and in data set [2] (cell cycle stage: mitosis) were 49.2 °C and 50.6 °C, respectively. Besides, in data set [3], the “solubility change mitosis (log2)” value was -0.102. Moreover, the thermal stability score in data set [4] (setting [5]) was 1.52; in data set [4] (cell cycle stage: mitosis) it was 2.78.

Source of the values: the supplement of paper PMC5998384.
